In the RNAGym collection of RNA variant scans (doi:10.1073/pnas.2313332121):
This sample holds only a part of the variants without activity.

B1: TPR 5TU (parent)
chain: GGAUCUUCUCGAUCUAACAAAAAAGACAAAUCUGCCACAAAGCUUGAGAGCAUCUUCGGAUGCAGAGGCGGCAGCCUUCGGUGGCGCGAUAGCGCCAACGUUCUCAACUAUGACACGCAAAACGCGUGCUCCGUUGAAUGGAGUUUAUCAUG

Variants of: B1
Assay: polymerase ribozyme fitness, log enrichment relative to wild type (log ratio); higher = more active; in vitro selection for triplet polymerase activity
In short: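 Each subunit of a heterodimeric triplet polymerase ribozyme was mutagenized into a library by PCR, transcribed, and subjected to one round of in vitro selection, run in triplicate. Libraries were annealed with a biotinylated primer, the partner subunit and triplets, incubated frozen at −7 °C, and extended constructs were gel-excised, captured on streptavidin beads and recovered by RT-PCR. Input and output libraries were sequenced on Illumina, keeping genotypes with ≥10 input reads and ≥1 read per output. Fitness is log base 2 of genotype enrichment divided by wild-type enrichment, from inverse-variance-weighted replicate averages.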

Row | Variant | polymerase ribozyme fitness (log ratio)
1 | U53A G86C | -3.25
2 | U61A U102C | -2.2
3 | G86U U144A | -3.12
4 | A89G A119C | -1.39
5 | A49C C96U | -3.23
6 | U6C G50C G59A G68U A137C | ≤ -4.2
7 | U55G G74A C85U A110G | ≤ -4.2
8 | C5G A17G C32U A49C C54U U55G G88C C96A | ≤ -4.2
9 | C14G G50U C87U C96A | -4.12
10 | C5U C14G G59C C63U C85U U101G | -3.47
11 | A73G G86U C105U A106U U144C | -3.89
12 | A49C G81U C93G | ≤ -4.2
13 | C85G U145C | -2.42
14 | A120C | -0.331
15 | C14U U15C A23U A41U C85A G124U | ≤ -4.2
16 | C125G U134A G140A | ≤ -4.2
17 | C18A G86A C96U A115C | -2.7
18 | A23C G50U C76U C79A C85U C99G | ≤ -4.2
19 | C10U A20U G83U | -3.85
20 | C118G A122G | -0.988
21 | U9C A28G C57A C96G U151C | ≤ -4.2
22 | A60C C85A | -2.62
23 | A16U C93U C116U G117U A121G | -2.05
24 | A97U G100A | -4.1

Row | Variant | polymerase ribozyme fitness (log ratio)
25 | A16U G83U C85U C103G U135G | ≤ -4.2
26 | C43A A52G G83A G124U G143A | ≤ -4.2
27 | A39C C108U | -3.8
28 | A24G G92C | -2.81
29 | A24U C35A U45G A47C G48C A64C C93G | ≤ -4.2
30 | G92U A122U G141C | -0.707
31 | G48C G68A C79U C99A | ≤ -4.2
32 | A17C A22C A73C A91C C95G U101A G143A | ≤ -4.2
33 | G58U G68A U148G | ≤ -4.2
34 | C85U A97U | -2.44
35 | A24G C27U U31A A47C U77C C85U U102C U144C | ≤ -4.2
36 | G133U U144A | -3.29
37 | U33G A98U G124C | -3.27
38 | A106G C116U U139A | ≤ -4.2
39 | G42C G84A A122U | ≤ -4.2
40 | A39U A47G U78A A97U | ≤ -4.2
41 | C18G A19U G25U A89U G94A C131U | -3.92
42 | C32U A66G A98U | -4.11
43 | A26C U61C C85A U151G | ≤ -4.2
44 | A28G A66C C79U G92U U148C | -3.86
45 | A21U C54A A142G | -2.81
46 | C10U G42A A49U A64G G71A U139C | ≤ -4.2
47 | C95U U101C | -0.173
48 | G46A U53G U56A A91C U104G G128U U146C | ≤ -4.2

Row | Variant | polymerase ribozyme fitness (log ratio)
49 | U44A G65C A89U | ≤ -4.2
50 | G34U G84A C95U C114G | -4.02
51 | C54G U55A G84A | -1.93
52 | U55G G88U | -4.02
53 | A12U C27G A41G C87U A91G G140U | ≤ -4.2
54 | C27U C36A A39C A41G G68A C93A A138G U139A | ≤ -4.2
55 | G65C C93A A97U C108U U109C | ≤ -4.2
56 | U53A C54G C95A | -1.73
57 | A29G C75U C96U U139G | ≤ -4.2
58 | A28G C76A A107G G141U U148C | ≤ -4.2
59 | U56G A119C U146G | -1.1
60 | C18G C123G | -0.253
61 | A21U C38U U135C | -3.08
62 | A23C U56A G81A U90A C95G G143U | ≤ -4.2
63 | C54A U56A C96U C105U G126A | -2.51
64 | U135C G141U | -1.69
65 | C10U A17G A28C G42A C85U A89G C93U U145G | ≤ -4.2
66 | U77C C114U | ≤ -4.2
67 | C5G A23G A52U C87G C99A | ≤ -4.2
68 | A40U G46A C85A A115G A120G | -4.09
69 | A16G A73G | -0.494
70 | A39U A52C C57U G58C | -3
71 | A47C A91C C105G A120G G143U | ≤ -4.2
72 | A26U G83C G128A U134G U135A U146C | ≤ -4.2

Row | Variant | polymerase ribozyme fitness (log ratio)
73 | C10U G48A G86A G88A C95A | ≤ -4.2
74 | C51U C118U | -0.957
75 | C18U G48U C85A U144C | -2.83
76 | C105G C116U U145A | -0.747
77 | G62A G68C C87A | ≤ -4.2
78 | A47G C69G | -1.95
79 | A28C C32U U45A U61G U78G G92C C93A U101G C132A A150C | ≤ -4.2
80 | C32G G58A C93A G128A | -4.2
81 | C14A C72U G81U C95U | -2.42
82 | A41U G42A U44C A64U C76G C96U A107U | ≤ -4.2
83 | C96G G124A | -0.441
84 | C38A A41C C54A G136U | -4.11
85 | C14A A21G U53A C85U | -3.58
86 | A52C C103U | -0.611
87 | C57U A60U C95A C105U C125A | -2.41
88 | U53A C54A G59U A64U C93G A137C | ≤ -4.2
89 | C38U G59U C79G | -3.85
90 | C27U G58A C63A G84U | -2.45
91 | U4A U139C | -4.08
92 | A52G G80U | -3.34
93 | A16C G92U C105U A107U A110C A138C | ≤ -4.2
94 | C108G U144C | -4.13
95 | A37C C72U G88C A89U A138U U145G | ≤ -4.2
96 | U6G A20C C38U C57U U61A C76G G94C A97G U145G | ≤ -4.2

Row | Variant | polymerase ribozyme fitness (log ratio)
97 | U7A C87U C96A A150U | -3.72
98 | U55C U82G C95U | -0.677
99 | C5G G50A G59C C76A G83A C103G C114A | ≤ -4.2
100 | A106C A115U A120C G136C | -3.11
101 | A22U A39C G59C G143A | -4.09
102 | G94A A121U C132G U146A A150G | ≤ -4.2
103 | A52G G84A C99U A120G | -1.11
104 | G42U C116A U135G | ≤ -4.2
105 | C63G C93A | -1.77
106 | A20U G84A G124A A147G | -2.53
107 | C8A C85U C116U G141A | ≤ -4.2
108 | U31A C32G C72G A150U | ≤ -4.2
109 | U56G C96A | -1.15
110 | A26G G58C A60G U82C C93G A98U C103A C105G G143U | ≤ -4.2
111 | A21U A91U | ≤ -4.2
112 | G50C C75G | ≤ -4.2
113 | A49G A91G G92U A138U U144C | ≤ -4.2
114 | C69A A97G A98U U104A G124A | -2.14
115 | A40C G59A C85A A89C | -2.83
116 | U15A A19C A23U G46C U53G C57A G68A G71A C93G U111G G141U | ≤ -4.2
117 | G42C U45A C79A G86A U104C A107C | ≤ -4.2
118 | U61C | -1.79
119 | A89G C95A A137C | -4.09
120 | G46A C54G | -1.88

Row | Variant | polymerase ribozyme fitness (log ratio)
121 | C5A U33G C38U A49C G67C G92C | ≤ -4.2
122 | G68U C85U | ≤ -4.2
123 | U82G C93U G141A | -0.284
124 | C10G A107C | ≤ -4.2
125 | G50C A52G U53A G81C U82G G88U C105G A150G | ≤ -4.2
126 | A37C C99U C118U G143A U144A | -3.39
127 | C27G C38A G42A G62A G68A A122C G128A U146G | -4.01
128 | C96A U104G | -0.932
129 | C75G G141C | -4.12
130 | A23U A73U G88C | ≤ -4.2
131 | U9A C35U A121U G136A | ≤ -4.2
132 | G25U C43U U61A G84U C85A A89U C93A C103A G141U | ≤ -4.2
133 | C10G A22G C63U G81U G94C A147G U148A | ≤ -4.2
134 | A19U G25U C38G A52C C75U C118G C131A A142U | ≤ -4.2
135 | A21C A23G C51G U55A U101A | ≤ -4.2
136 | A28G A37U C57A C123U G143C | ≤ -4.2
137 | C38U G59C C95U A98U C103G U148G | ≤ -4.2
138 | A30G C38A U56A A107U A121C | ≤ -4.2
139 | C10A G83C | -3.94
140 | G74A G86C G100C C103G C105A U151A | ≤ -4.2
141 | A40U U104C C108A | ≤ -4.2
142 | U6A U45A | -2.51
143 | A3U A41G C85U G126U U144A | -1.79
144 | A21C C27U C35U G68A C96A A147G | ≤ -4.2

Row | Variant | polymerase ribozyme fitness (log ratio)
145 | U44A G94A C116U G152U | -4.16
146 | A16C C43A A52C G70A C131U | ≤ -4.2
147 | A19C A106C | 0.458
148 | A21U C93U | -0.752
149 | A20U C54U C95U C96A | -2.31
150 | U45A A52C A73C A91U U101C | ≤ -4.2
151 | A115U A142C | -3.39
152 | U4C C32A A37G G83U A122U U151A | ≤ -4.2
153 | G34A C38A C76G C99G U104A A107U G143A | ≤ -4.2
154 | A20U A21U A41C A47U G58U U104A | -2.77
155 | G50A C87U C99U U146A | -3.96
156 | G58A A73U | -1.65
157 | C32U C54G C85A A119U G126A C149A | ≤ -4.2
158 | G46A A49C G71U G86A C96U A97U | ≤ -4.2
159 | A40G G58A | -0.952
160 | C75A C116U | ≤ -4.2
161 | U4A A21U G50A G68A G74A C75G C93U A107C C131G | ≤ -4.2
162 | G88U C108A G128C C132U A137U | ≤ -4.2
163 | G11A G50A C63U C93U | -1.77
164 | C54U U56A A60G G84U G126U | -1.81
165 | A19G A20G C43U A47C U55G C87U C105U U145G | ≤ -4.2
166 | A41C A49C U77C G86C C96U U101G C118G | ≤ -4.2
167 | C72G U146G | ≤ -4.2
